Assay results as given in US20200255543A1 (ROCKEFELLER UNIVERSITY, published 2020).

How the values were obtained:
recombinant human MERTK [1] = biological target: T1, recombinant human MERTK (human, UniProt Q12866 21-505, limits assumed); test: biolayer interferometry, M6 loaded on AMQ sensor at 1 ug/mL, hMer in solution at 0.3125 nM, local 1:1 fit
T1 construct: Analyte in solution in biolayer interferometry; also called hMer
T1 sequence: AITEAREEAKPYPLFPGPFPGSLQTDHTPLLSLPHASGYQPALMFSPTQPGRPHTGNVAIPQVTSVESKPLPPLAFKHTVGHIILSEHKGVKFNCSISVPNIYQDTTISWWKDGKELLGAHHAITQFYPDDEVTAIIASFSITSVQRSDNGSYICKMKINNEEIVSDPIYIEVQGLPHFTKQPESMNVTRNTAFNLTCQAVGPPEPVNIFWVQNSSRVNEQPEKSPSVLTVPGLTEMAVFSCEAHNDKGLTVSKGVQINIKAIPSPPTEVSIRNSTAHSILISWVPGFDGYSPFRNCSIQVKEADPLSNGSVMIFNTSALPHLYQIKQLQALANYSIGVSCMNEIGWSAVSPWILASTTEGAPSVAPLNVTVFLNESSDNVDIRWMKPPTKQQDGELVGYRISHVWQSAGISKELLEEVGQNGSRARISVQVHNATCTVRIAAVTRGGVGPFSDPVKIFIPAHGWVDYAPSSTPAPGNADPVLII
Protocol: (§1) FIG. 11: M6 binds to MERTK with high affinity. M6 binds to human MERTK with high affinity. A diagram showing antibody binding kinetics for M6 (Mer-M6) against human MERTK (hMer) using biolayer interferometry. Purified M6 was loaded on an AMQ sensor at a concentration of 1 microgram/mL to test binding against analytes in solution. All analytes were prepared at 5 nM with a 2-fold dilution series for a total of 7 concentrations. Kinetic fits were calculated using a 1:1 model, with Local fits for each concentration as well as an overall Global fit.

recombinant human MERTK [2] = biological target: T1, recombinant human MERTK; test: biolayer interferometry, M6 loaded on AMQ sensor at 1 ug/mL, hMer in solution at 2.5 nM, local 1:1 fit
Protocol: as §1

recombinant human MERTK [3] = biological target: T1, recombinant human MERTK; test: biolayer interferometry, M6 loaded on AMQ sensor at 1 ug/mL, hMer in solution at 0.625 nM, local 1:1 fit
Protocol: as §1

recombinant human MERTK [4] = biological target: T1, recombinant human MERTK; test: biolayer interferometry, M6 loaded on AMQ sensor at 1 ug/mL, hMer in solution at 0.1563 nM, local 1:1 fit
Protocol: as §1

recombinant human MERTK [5] = biological target: T1, recombinant human MERTK; test: biolayer interferometry, M6 loaded on AMQ sensor at 1 ug/mL, hMer in solution at 5 to 0.0781 nM, global 1:1 fit
Protocol: as §1

recombinant human MERTK [6] = biological target: T1, recombinant human MERTK; test: biolayer interferometry, M6 loaded on AMQ sensor, hMer analyte from 5 nM in 2-fold dilutions, 1:1 model, global fit
Protocol: as §1

recombinant human MERTK [7] = biological target: T1, recombinant human MERTK; test: biolayer interferometry, M6 loaded on AMQ sensor at 1 ug/mL, hMer in solution at 1.25 nM, local 1:1 fit
Protocol: as §1

recombinant human MERTK [8] = biological target: T1, recombinant human MERTK; test: biolayer interferometry, M6 loaded on AMQ sensor at 1 ug/mL, hMer in solution at 0.0781 nM, local 1:1 fit
Protocol: as §1

recombinant human MERTK [9] = biological target: T1, recombinant human MERTK; test: biolayer interferometry, M6 loaded on AMQ sensor at 1 ug/mL, hMer in solution at 5 nM, local 1:1 fit
Protocol: as §1

- Kd (recombinant human MERTK [1]): 0.00312 pM
- koff (recombinant human MERTK [1]): 3.3e-08 s⁻¹
- kon (recombinant human MERTK [1]): 1.06e+07 M⁻¹ s⁻¹
- Kd (recombinant human MERTK [2]): 2.09 pM
- koff (recombinant human MERTK [2]): 4.46e-06 s⁻¹
- kon (recombinant human MERTK [2]): 2.13e+06 M⁻¹ s⁻¹
- Kd (recombinant human MERTK [3]): 0.0131 pM
- koff (recombinant human MERTK [3]): 7.27e-08 s⁻¹
- kon (recombinant human MERTK [3]): 5.57e+06 M⁻¹ s⁻¹
- Kd (recombinant human MERTK [4]): 0.0652 pM
- koff (recombinant human MERTK [4]): 9.22e-07 s⁻¹
- kon (recombinant human MERTK [4]): 1.41e+07 M⁻¹ s⁻¹
- koff (recombinant human MERTK [5]): 9.55e-06 s⁻¹
- kon (recombinant human MERTK [5]): 2.07e+06 M⁻¹ s⁻¹
- Kd (recombinant human MERTK [6]): 4.6 pM
- Kd (recombinant human MERTK [7]): 49.8 pM
- koff (recombinant human MERTK [7]): 0.000156 s⁻¹
- kon (recombinant human MERTK [7]): 3.12e+06 M⁻¹ s⁻¹
- Kd (recombinant human MERTK [8]): 0.823 pM
- koff (recombinant human MERTK [8]): 2.49e-05 s⁻¹
- kon (recombinant human MERTK [8]): 3.03e+07 M⁻¹ s⁻¹
- Kd (recombinant human MERTK [9]): 0.634 pM
- koff (recombinant human MERTK [9]): 1.5e-06 s⁻¹
- kon (recombinant human MERTK [9]): 2.37e+06 M⁻¹ s⁻¹
B1: monoclonal antibody M6 (antibody, V domains shown)
VH: QVKLEESGPELKKPGETVKISCKASGYTFTNYGMNWVKQAPGKGLKWMGWINTYTGEPTYADDFKGRFVFSLETSASTAYLQINNLKNEDMATYFCARKSTVVSRYFDVWGAGTTVTVSS
VL: DIVLTQTHKFMSTSVGDRVSITCKASQDVGDAVTWCQQKPGQPPKLLIYWASTRHTGVPDRFTGSGSGTDFTLTINNVQSEDLADYFCQQYRSYPLTFGAGTKLELKR
notes: Mouse hybridoma monoclonal antibody; Hybridoma supernatant was used in the ELISA screen, purified antibody in biolayer interferometry; also called Mer-M6
